Reference: paper PMC8298264, “Function of cofactor Akirin2 in the regulation of gene expression in model human neutrophil-like HL60 cells” (Bioscience Reports, 2021)

B1: sp¦O96011¦PX11B_HUMAN (protein, UniProt O96011 1-259, looked up)
Peroxisomal membrane protein …: MDAWVRFSAQSQARERLCRAAQYACSLLGHALQRHGASPELQKQIRQLESHLSLGRKLLRLGNSADALESAKRAVHLSDVVLRFCITVSHLNRALYFACDNVLWAGKSGLAPRVDQEKWAQRSFRYYLFSLIMNLSRDAYEIRLLMEQESSACSRRLKGSGGGVPGGSETGGLGGPGTPGGGLPQLALKLRLQVLLLARVLRGHPPLLLDVVRNACDLFIPLDKLGLWRCGPGIVGLCGLVSSILSILTLIYPWLRLKP
B2: sp¦Q9NVA1¦UQCC1_HUMAN (protein, UniProt Q9NVA1 1-299, looked up)
Ubiquinol-cytochrome c …: MALLVRVLRNQTSISQWVPVCSRLIPVSPTQGQGDRALSRTSQWPQMSQSRACGGSEQIPGIDIQLNRKYHTTRKLSTTKDSPQPVEEKVGAFTKIIEAMGFTGPLKYSKWKIKIAALRMYTSCVEKTDFEEFFLRCQMPDTFNSWFLITLLHVWMCLVRMKQEGRSGKYMCRIIVHFMWEDVQQRGRVMGVNPYILKKNMILMTNHFYAAILGYDEGILSDDHGLAAALWRTFFNRKCEDPRHLELLVEYVRKQIQYLDSMNGEDLLLTGEVSWRPLVEKNPQSILKPHSPTYNDEGL
B3: sp¦O60488¦ACSL4_HUMAN (protein, UniProt O60488 1-711, looked up)
Long-chain-fatty-acid--CoA …: MKLKLNVLTIILLPVHLLITIYSALIFIPWYFLTNAKKKNAMAKRIKAKPTSDKPGSPYRSVTHFDSLAVIDIPGADTLDKLFDHAVSKFGKKDSLGTREILSEENEMQPNGKVFKKLILGNYKWMNYLEVNRRVNNFGSGLTALGLKPKNTIAIFCETRAEWMIAAQTCFKYNFPLVTLYATLGKEAVVHGLNESEASYLITSVELLESKLKTALLDISCVKHIIYVDNKAINKAEYPEGFEIHSMQSVEELGSNPENLGIPPSRPTPSDMAIVMYTSGSTGRPKGVMMHHSNLIAGMTGQCERIPGLGPKDTYIGYLPLAHVLELTAEISCFTYGCRIGYSSPLTLSDQSSKIKKGSKGDCTVLKPTLMAAVPEIMDRIYKNVMSKVQEMNYIQKTLFKIGYDYKLEQIKKGYDAPLCNLLLFKKVKALLGGNVRMMLSGGAPLSPQTHRFMNVCFCCPIGQGYGLTESCGAGTVTEVTDYTTGRVGAPLICCEIKLKDWQEGGYTINDKPNPRGEIVIGGQNISMGYFKNEEKTAEDYSVDENGQRWFCTGDIGEFHPDGCLQIIDRKKDLVKLQAGEYVSLGKVEAALKNCPLIDNICAFAKSDQSYVISFVVPNQKRLTLLAQQKGVEGTWVDICNNPAMEAEILKEIREAANAMKLERFEIPIKVRLSPEPWTPETGLVTDAFKLKRKELRNHYLKDIERMYGGK
B4: sp¦P16615¦AT2A2_HUMAN (protein, UniProt P16615 1-1042, looked up)
Sarcoplasmic/endoplasmic …: MENAHTKTVEEVLGHFGVNESTGLSLEQVKKLKERWGSNELPAEEGKTLLELVIEQFEDLLVRILLLAACISFVLAWFEEGEETITAFVEPFVILLILVANAIVGVWQERNAENAIEALKEYEPEMGKVYRQDRKSVQRIKAKDIVPGDIVEIAVGDKVPADIRLTSIKSTTLRVDQSILTGESVSVIKHTDPVPDPRAVNQDKKNMLFSGTNIAAGKAMGVVVATGVNTEIGKIRDEMVATEQERTPLQQKLDEFGEQLSKVISLICIAVWIINIGHFNDPVHGGSWIRGAIYYFKIAVALAVAAIPEGLPAVITTCLALGTRRMAKKNAIVRSLPSVETLGCTSVICSDKTGTLTTNQMSVCRMFILDRVEGDTCSLNEFTITGSTYAPIGEVHKDDKPVNCHQYDGLVELATICALCNDSALDYNEAKGVYEKVGEATETALTCLVEKMNVFDTELKGLSKIERANACNSVIKQLMKKEFTLEFSRDRKSMSVYCTPNKPSRTSMSKMFVKGAPEGVIDRCTHIRVGSTKVPMTSGVKQKIMSVIREWGSGSDTLRCLALATHDNPLRREEMHLEDSANFIKYETNLTFVGCVGMLDPPRIEVASSVKLCRQAGIRVIMITGDNKGTAVAICRRIGIFGQDEDVTSKAFTGREFDELNPSAQRDACLNARCFARVEPSHKSKIVEFLQSFDEITAMTGDGVNDAPALKKAEIGIAMGSGTAVAKTASEMVLADDNFSTIVAAVEEGRAIYNNMKQFIRYLISSNVGEVVCIFLTAALGFPEALIPVQLLWVNLVTDGLPATALGFNPPDLDIMNKPPRNPKEPLISGWLFFRYLAIGCYVGAATVGAAAWWFIAADGGPRVSFYQLSHFLQCKEDNPDFEGVDCAIFESPYPMTMALSVLVTIEMCNALNSLSENQSLLRMPPWENIWLVGSICLSMSLHFLILYVEPLPLIFQITPLNVTQWLMVLKISLPVILMDETLKFVARNYLEPGKECVQPATKSCSFSACTDGISWPFVLLIMPLVIWVYSTDTNFSDMFWS
B5: sp¦Q9NVJ2¦ARL8B_HUMAN (protein, UniProt Q9NVJ2 1-186, looked up)
ADP-ribosylation factor-like …: MLALISRLLDWFRSLFWKEEMELTLVGLQYSGKTTFVNVIASGQFSEDMIPTVGFNMRKVTKGNVTIKIWDIGGQPRFRSMWERYCRGVNAIVYMIDAADREKIEASRNELHNLLDKPQLQGIPVLVLGNKRDLPNALDEKQLIEKMNLSAIQDREICCYSISCKEKDNIDITLQWLIQHSKSRRS
B6: sp¦P51148¦RAB5C_HUMAN (protein, UniProt P51148 1-216, looked up)
Ras-related protein Rab-5C: MAGRGGAARPNGPAAGNKICQFKLVLLGESAVGKSSLVLRFVKGQFHEYQESTIGAAFLTQTVCLDDTTVKFEIWDTAGQERYHSLAPMYYRGAQAAIVVYDITNTDTFARAKNWVKELQRQASPNIVIALAGNKADLASKRAVEFQEAQAYADDNSLLFMETSAKTAMNVNEIFMAIAKKLPKNEPQNATGAPGRNRGVDLQENNPASRSQCCSN
B7: sp¦P27105¦STOM_HUMAN (protein, UniProt P27105 1-288, looked up)
Stomatin: MAEKRHTRDSEAQRLPDSFKDSPSKGLGPCGWILVAFSFLFTVITFPISIWMCIKIIKEYERAIIFRLGRILQGGAKGPGLFFILPCTDSFIKVDMRTISFDIPPQEILTKDSVTISVDGVVYYRVQNATLAVANITNADSATRLLAQTTLRNVLGTKNLSQILSDREEIAHNMQSTLDDATDAWGIKVERVEIKDVKLPVQLQRAMAAEAEASREARAKVIAAEGEMNASRALKEASMVITESPAALQLRYLQTLTTIAAEKNSTIVFPLPIDMLQGIIGAKHSHLG
B8: sp¦P51159¦RB27A_HUMAN (protein, UniProt P51159 2-221, looked up)
Ras-related protein Rab-27A: SDGDYDYLIKFLALGDSGVGKTSVLYQYTDGKFNSKFITTVGIDFREKRVVYRASGPDGATGRGQRIHLQLWDTAGQERFRSLTTAFFRDAMGFLLLFDLTNEQSFLNVRNWISQLQMHAYCENPDIVLCGNKSDLEDQRVVKEEEAIALAEKYGIPYFETSAANGTNISQAIEMLLDLIMKRMERCVDKSWIPEGVVRSNGHASTDQLSEEKEKGACGC
B9: sp¦Q9BVC6¦TM109_HUMAN (protein, UniProt Q9BVC6 34-243, looked up)
Voltage-gated monoatomic …: QSRRDFAPPGQQKREAPVDVLTQIGRSVRGTLDAWIGPETMHLVSESSSQVLWAISSAISVAFFALSGIAAQLLNALGLAGDYLAQGLKLSPGQVQTFLLWGAGALVVYWLLSLLLGLVLALLGRILWGLKLVIFLAGFVALMRSVPDPSTRALLLLALLILYALLSRLTGSRASGAQLEAKVRGLERQVEELRWRQRRAAKGARSVEEE
B10: sp¦Q15645¦PCH2_HUMAN (protein, UniProt Q15645 1-432, looked up)
Pachytene checkpoint protein …: MDEAVGDLKQALPCVAESPTVHVEVHQRGSSTAKKEDINLSVRKLLNRHNIVFGDYTWTEFDEPFLTRNVQSVSIIDTELKVKDSQPIDLSACTVALHIFQLNEDGPSSENLEEETENIIAANHWVLPAAEFHGLWDSLVYDVEVKSHLLDYVMTTLLFSDKNVNSNLITWNRVVLLHGPPGTGKTSLCKALAQKLTIRLSSRYRYGQLIEINSHSLFSKWFSESGKLVTKMFQKIQDLIDDKDALVFVLIDEVESLTAARNACRAGTEPSDAIRVVNAVLTQIDQIKRHSNVVILTTSNITEKIDVAFVDRADIKQYIGPPSAAAIFKIYLSCLEELMKCQIIYPRQQLLTLRELEMIGFIENNVSKLSLLLNDISRKSEGLSGRVLRKLPFLAHALYVQAPTVTIEGFLQALSLAVDKQFEERKKLAAYI
B11: sp¦P61019¦RAB2A_HUMAN (protein, UniProt P61019 2-212, looked up)
Ras-related protein Rab-2A: AYAYLFKYIIIGDTGVGKSCLLLQFTDKRFQPVHDLTIGVEFGARMITIDGKQIKLQIWDTAGQESFRSITRSYYRGAAGALLVYDITRRDTFNHLTTWLEDARQHSNSNMVIMLIGNKSDLESRREVKKEEGEAFAREHGLIFMETSAKTASNVEEAFINTAKEIYEKIQEGVFDINNEANGIKIGPQHAATNATHAGNQGGQQAGGGCC
B12: sp¦P21964¦COMT_HUMAN (protein, UniProt P21964 1-271, looked up)
Catechol O-methyltransferase: MPEAPPLLLAAVLLGLVLLVVLLLLLRHWGWGLCLIGWNEFILQPIHNLLMGDTKEQRILNHVLQHAEPGNAQSVLEAIDTYCEQKEWAMNVGDKKGKIVDAVIQEHQPSVLLELGAYCGYSAVRMARLLSPGARLITIEINPDCAAITQRMVDFAGVKDKVTLVVGASQDIIPQLKKKYDVDTLDMVFLDHWKDRYLPDTLLLEECGLLRKGTVLLADNVICPGAPDFLAHVRGSSCFECTHYQSFLEYREVVDGLEKAIYKGPGSEAGP
B13: sp¦Q9H939¦PPIP2_HUMAN (protein, UniProt Q9H939 1-334, looked up)
Proline-serine-threonine …: MTRSLFKGNFWSADILSTIGYDNIIQHLNNGRKNCKEFEDFLKERAAIEERYGKDLLNLSRKKPCGQSEINTLKRALEVFKQQVDNVAQCHIQLAQSLREEARKMEEFREKQKLQRKKTELIMDAIHKQKSLQFKKTMDAKKNYEQKCRDKDEAEQAVSRSANLVNPKQQEKLFVKLATSKTAVEDSDKAYMLHIGTLDKVREEWQSEHIKACEAFEAQECERINFFRNALWLHVNQLSQQCVTSDEMYEQVRKSLEMCSIQRDIEYFVNQRKTGQIPPAPIMYENFYSSQKNAVPAGKATGPNLARRGPLPIPKSSPDDPNYSLVDDYSLLYQ
B14: sp¦Q9Y3A6¦TMED5_HUMAN (protein, UniProt Q9Y3A6 28-229, looked up)
Transmembrane emp24 …: FTPSLDSDFTFTLPAGQKECFYQPMPLKASLEIEYQVLDGAGLDIDFHLASPEGKTLVFEQRKSDGVHTVETEVGDYMFCFDNTFSTISEKVIFFELILDNMGEQAQEQEDWKKYITGTDILDMKLEDILESINSIKSRLSKSGHIQTLLRAFEARDRNIQESNFDRVNFWSMVNLVVMVVVSAIQVYMLKSLFEDKRKSRT

These molecules were tested on human HL60 cells (assay: SWATH-MS proteomics, differential protein representation, akirin2 KO vs WT HL60 cells). Details: KO vs WT HL60 cells; sheet "Under-represented in KO".
Type: cell-based
In short: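 Proteins from WT and akirin2 KO HL60 cells (n=3 biological replicates) were FASP trypsin-digested and analyzed by SWATH-MS DIA with variable windows against an IDA-derived spectral library. Identifications at 1% global FDR; quantities normalized to total area sums of all detected proteins.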

| Molecule | Fold Change | Log (Fold Change) |
| --- | --- | --- |
| B1 | 0.5344 | -0.2721 |
| B2 | 0.5349 | -0.2718 |
| B3 | 0.5384 | -0.2689 |
| B4 | 0.5392 | -0.2682 |
| B5 | 0.5417 | -0.2663 |
| B6 | 0.5435 | -0.2648 |
| B7 | 0.5492 | -0.2603 |
| B8 | 0.5507 | -0.2591 |

Same assay, conditions: KO vs WT; akirin2 KO vs WT HL60 cells; sheet "Under-represented in KO"

| Molecule | Fold Change | Log (Fold Change) |
| --- | --- | --- |
| B9 | 0.5517 | -0.2583 |
| B10 | 0.5524 | -0.2577 |
| B11 | 0.5636 | -0.249 |
| B12 | 0.567 | -0.2464 |
| B13 | 0.5689 | -0.2449 |

Same assay, conditions: akirin2 KO vs WT HL60 cells; sheet "Under-represented in KO"

| Molecule | Fold Change | Log (Fold Change) |
| --- | --- | --- |
| B14 | 0.2554 | -0.5928 |
